Measurements reported in patent US11180777B2, “Cell fraction and method of generating a cell fraction containing a protein of interest” (Corning Incorporated, priority 2015, dated 2021).

Experiments:
[1] = target: T1, Aldehyde Oxidase (AO) (Homo sapiens, UniProt Q06278); experiment: AO assay with probe substrate phthalazine (HPLC); format: biochemical; conditions: rAO prepared with transfected HEK293 cells
T1 construct: made in house; host or cells: HEK293 cells, transfected by electroporation; supernatant (soluble fraction) after the 37,000 rpm spin
T1 sequence (Q06278 1-1338): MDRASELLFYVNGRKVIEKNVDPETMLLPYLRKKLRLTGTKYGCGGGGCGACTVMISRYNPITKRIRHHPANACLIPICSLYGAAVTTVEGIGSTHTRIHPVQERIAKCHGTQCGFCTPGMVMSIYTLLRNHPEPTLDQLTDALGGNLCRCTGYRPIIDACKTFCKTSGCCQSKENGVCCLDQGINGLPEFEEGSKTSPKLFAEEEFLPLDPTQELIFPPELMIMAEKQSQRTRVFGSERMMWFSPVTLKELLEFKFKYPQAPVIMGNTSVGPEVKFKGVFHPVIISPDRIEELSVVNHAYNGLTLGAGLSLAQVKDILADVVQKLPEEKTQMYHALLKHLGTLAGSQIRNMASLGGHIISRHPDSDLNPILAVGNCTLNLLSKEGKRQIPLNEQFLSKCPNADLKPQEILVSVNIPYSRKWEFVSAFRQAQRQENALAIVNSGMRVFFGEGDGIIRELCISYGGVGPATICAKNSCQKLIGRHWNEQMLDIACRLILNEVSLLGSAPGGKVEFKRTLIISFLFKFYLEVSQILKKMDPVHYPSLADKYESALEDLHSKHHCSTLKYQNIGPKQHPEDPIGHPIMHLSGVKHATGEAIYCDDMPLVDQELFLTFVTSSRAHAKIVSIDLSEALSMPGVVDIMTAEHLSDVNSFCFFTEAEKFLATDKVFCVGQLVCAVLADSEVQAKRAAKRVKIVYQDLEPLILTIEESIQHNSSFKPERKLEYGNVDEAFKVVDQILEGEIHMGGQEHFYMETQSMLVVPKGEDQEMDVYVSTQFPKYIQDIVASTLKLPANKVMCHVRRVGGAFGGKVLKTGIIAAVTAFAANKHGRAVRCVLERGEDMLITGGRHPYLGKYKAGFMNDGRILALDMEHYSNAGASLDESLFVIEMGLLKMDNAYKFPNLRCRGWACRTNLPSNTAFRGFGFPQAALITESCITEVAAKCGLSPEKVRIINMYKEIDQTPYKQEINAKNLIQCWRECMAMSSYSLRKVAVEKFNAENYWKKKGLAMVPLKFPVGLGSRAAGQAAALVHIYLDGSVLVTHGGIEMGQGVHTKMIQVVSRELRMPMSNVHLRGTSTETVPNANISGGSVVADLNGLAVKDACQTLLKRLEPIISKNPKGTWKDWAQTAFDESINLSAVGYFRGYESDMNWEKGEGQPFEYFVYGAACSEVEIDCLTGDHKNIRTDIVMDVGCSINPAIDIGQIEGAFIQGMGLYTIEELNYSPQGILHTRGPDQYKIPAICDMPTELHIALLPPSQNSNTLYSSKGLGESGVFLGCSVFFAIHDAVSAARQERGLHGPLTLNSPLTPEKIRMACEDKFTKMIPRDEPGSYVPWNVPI
Procedure: (§1) The recombinant AO and UGT1A1 enzymes were prepared as following. Briefly, the cells pellets obtained from the cell recovery step were washed once with phosphate buffered saline (PBS) and centrifuged at 1500 rpm for 10 min at 4° C. The resulting pellet was diluted with appropriate amount of 0.1 M potassium phosphate buffer, and transferred into Dounce Homogenizer followed with 10 stokes. The cell lysate was centrifuged at 2600 rpm for 10 minutes at 4° C. The supernatant was transferred to a new set of centrifuge tube and spun at 37,000 rpm for 15 minutes at 4° C. For recombinant AO, the supernatant (soluble fraction) was aliquoted and stored at −80° C. until use. For UGT1A1 microsomes, the pellet was resuspended in an appropriate amount of 0.1M Tris buffer and homogenized with a Dounce homogenizer with 10 strokes. The UGT1A1 microsomes were aliquoted and stored at −80° C. until use.
AO assays are carried out at 37° C. in 25 mM potassium phosphate buffer (pH7.4) containing 0.1 mM EDTA. 170 μL assay buffer was mixed with 20 μL 1 mM phthalazine and prewarmed to 37° C. in heat block. The reaction is initiated with 10 μL 5 mg/mL AO sample. The cap needs to be opened for oxygen circulation. After incubation, the reaction was stopped by the addition of 100 ul 94% acetonitrile/6% glacial acetic acid. The reaction mix was centrifuged (10,000×g) for 3 minutes and supernatant was analyzed on HPLC.

[2] = target: T2, UGT1A1 (Homo sapiens, UniProt P22309); experiment: UGT1A1 assay (beta-estradiol glucuronidation, HPLC); format: biochemical; conditions: electroporation method versus BEVs system
T2 construct: made in house; host or cells: HEK293 cells, electroporated with UGT1A1 cDNA; microsomes (membrane pellet)
T2 sequence (P22309 26-533): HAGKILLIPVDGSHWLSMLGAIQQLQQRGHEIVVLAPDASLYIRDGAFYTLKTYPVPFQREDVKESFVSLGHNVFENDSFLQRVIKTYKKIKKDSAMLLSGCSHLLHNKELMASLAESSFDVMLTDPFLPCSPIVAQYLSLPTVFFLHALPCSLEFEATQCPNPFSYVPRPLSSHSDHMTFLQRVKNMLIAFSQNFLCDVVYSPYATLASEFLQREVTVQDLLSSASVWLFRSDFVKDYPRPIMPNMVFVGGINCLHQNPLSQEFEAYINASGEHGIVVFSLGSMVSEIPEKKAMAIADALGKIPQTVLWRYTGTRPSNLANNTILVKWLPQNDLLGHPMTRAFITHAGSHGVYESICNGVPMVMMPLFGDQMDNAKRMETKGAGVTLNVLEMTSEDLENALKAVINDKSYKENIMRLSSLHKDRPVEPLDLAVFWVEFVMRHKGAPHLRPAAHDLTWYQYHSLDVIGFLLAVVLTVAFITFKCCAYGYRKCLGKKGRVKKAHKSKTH
Procedure: as §1
A 0.2 ml reaction mixture containing 1.0 mg/ml protein, 2 mM uridine diphosphoglucuronic acid (UDPGA), 10 mM magnesium chloride, 0.025 mg/ml alamethicin and 150 uM beta-estradiol in 50 mM Tris (pH 7.5) was incubated at 37° C. for 30 minutes. After incubation, the reaction was stopped by the addition of 50 ul 94% acetonitrile/6% glacial acetic acid. The reaction mix was centrifuged (10,000×g) for 3 minutes and supernatant was analyzed on HPLC.

Molecule: Aldehyde Oxidase (AO): recombinant Phase 1 drug metabolizing enzyme Aldehyde Oxidase prepared with transfected HEK293 cells (soluble fraction)
- AO kinetics with phthalazine [1]: exhibited standard michaelis-mention kinetics curve

B1: UGT1A1: UGT1A1 expressed using the electroporation method (HEK293 microsomes) (protein, UniProt P22309 26-533, looked up)
UDP-glucuronosyltransferase …: HAGKILLIPVDGSHWLSMLGAIQQLQQRGHEIVVLAPDASLYIRDGAFYTLKTYPVPFQREDVKESFVSLGHNVFENDSFLQRVIKTYKKIKKDSAMLLSGCSHLLHNKELMASLAESSFDVMLTDPFLPCSPIVAQYLSLPTVFFLHALPCSLEFEATQCPNPFSYVPRPLSSHSDHMTFLQRVKNMLIAFSQNFLCDVVYSPYATLASEFLQREVTVQDLLSSASVWLFRSDFVKDYPRPIMPNMVFVGGINCLHQNPLSQEFEAYINASGEHGIVVFSLGSMVSEIPEKKAMAIADALGKIPQTVLWRYTGTRPSNLANNTILVKWLPQNDLLGHPMTRAFITHAGSHGVYESICNGVPMVMMPLFGDQMDNAKRMETKGAGVTLNVLEMTSEDLENALKAVINDKSYKENIMRLSSLHKDRPVEPLDLAVFWVEFVMRHKGAPHLRPAAHDLTWYQYHSLDVIGFLLAVVLTVAFITFKCCAYGYRKCLGKKGRVKKAHKSKTH
- UGT1A1 activity relative to UGT1A1 expressed with the BEVs system [2]: 5 ×
